± gives the standard deviation.
Assay: protein stability index of a GFP-peptide fusion (GPS, HEK-293T) (PSI 1-6); higher = more stable
[1] = treatment: DMSO, c terminus: a fixed tail appended
[2] = treatment: MLN4924 1 uM, 8 h, c terminus: a fixed tail appended
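Also: 24-mer peptide tiles fused after GFP, lentivirally expressed, FACS-sorted into six equal bins by GFP/DsRed ratio, decoded by Illumina sequencing, PSI is the read-weighted mean bin number.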

Sequence	protein stability index [1]	protein stability index [2]	protein stability index (treatment: DMSO, c terminus: native)	protein stability index (treatment: MLN4924 1 uM, 8 h, c terminus: native)
HGLAFWFDVAFIGSIMTVWLSTAP [CARM1]	2.78 ± 0.33	3.1 ± 0.53	–	–
DFIHRHCQDQNVPVENFFVKCNGA [SDE2]	2.83 ± 0.088	2.95 ± 0.34	–	–
KELDENVEYEERESEFDIEDEDKS [RBBP5]	5.65 ± 0.23	5.62 ± 0.32	–	–
WNFEITNQSFNIVDIKPANMEELT [PPP2R2B]	3.4 ± 0.55	3.13 ± 0.65	–	–
APTMLHNSSGDFSQAHSTLKLANH [TRAF3IP2]	4.02 ± 0.19	4.18 ± 0.34	–	–
LEFRSFWELIGEAAKSVKLERPVR [S100A14]	1.87 ± 0.2	2.33 ± 0.35	–	–
MPAATVDHSQRICEVWACNLDEEM [CNOT7]	4.65 ± 0.41	4.77 ± 0.28	–	–
ALGHLGNDDSADYQHFLQDCVDGL [DLC1]	4.26 ± 0.17	4.28 ± 0.46	–	–
APDPELAAEMYQRGRAVLREAGFH [RSAD1]	3.92 ± 0.32	4.07 ± 0.22	–	–
IELNPPEKMALDPYTELRKQPLRK [EFHC1]	4.08 ± 0.2	4.21 ± 0.33	–	–
LNERKQASAIKKEELVARSETHAA [CHGB]	5.48 ± 0.22	5 ± 0.23	–	–
AMVLELLGPSLEDLFDLCDRTFTL [CSNK1G1]	2.52 ± 1.4	1.53 ± 0.14	–	–
TWVTVKNGSGDMIFEGNSEKEIPV [CPXM2]	4 ± 0.2	3.9 ± 0.081	–	–
LRTYLARLPWAGQLTKELPLSPAF [PBXIP1]	2.22 ± 0.64	2.16 ± 0.22	–	–
ILTEPAQAQKCYRDLALVSRDGMN [INTS3]	3.28 ± 0.3	3.24 ± 0.6	–	–
PPPPPGLPSDGDHQVPTTAGNKAA [WASL]	5.46 ± 0.33	5.43 ± 0.12	–	–
QELPPYNGFGLVEDSAQNCFALIP [EFHC1]	3.38 ± 0.18	3.4 ± 0.24	–	–
RHTSPVFSPANPESSMEDCLAHLG [BCL2L13]	4.24 ± 0.069	4.31 ± 0.29	–	–
DRGIKGDITPLMAAANGGHVKIVK [ANKRD17]	4.42 ± 0.11	4.38 ± 0.085	–	–
YSLLYLEHKGWYSWVLSMLYGFLL [CLPTM1]	2.18 ± 0.37	2.26 ± 0.49	–	–
EFKAAFDMFDADGGGDISVKELGT [TNNC2]	4.16 ± 0.13	4.63 ± 0.11	–	–
EAQAFRALVQEKIQKRNQRQSGDR [WAS]	4.5 ± 0.12	4.5 ± 0.13	–	–

Sequence	protein stability index [1]	protein stability index [2]	protein stability index (treatment: DMSO, c terminus: native)	protein stability index (treatment: MLN4924 1 uM, 8 h, c terminus: native)
TPIPWLSSGEPVDYNVDIGIPLDG [MYOZ1]	3.98 ± 0.19	4.07 ± 0.2	–	–
YANLALSGLIEIQSYPLCIYLINQ [SLC22A15]	3.9 ± 0.46	3.34 ± 0.19	–	–
SLDEFRQTWKLFSSHMNIDITDDC [PPEF2]	2.49 ± 0.3	2.75 ± 0.21	–	–
CESDIWALGCVMYTMLLGRPPFET [PLK2]	3.72 ± 0.55	3.59 ± 0.71	–	–
HPCGDKNCPAHWLAQDWERCNTTC [ADAMTSL2]	4.21 ± 0.14	3.99 ± 0.26	–	–
GFDTDGLSSAVWPGGETEALTRLE [CRY1]	4.54 ± 0.73	4.76 ± 0.29	–	–
PAITATLLDFMCRIIPNFYPPLEG [INTS3]	3.07 ± 0.13	3.1 ± 0.32	–	–
HLDPGFLASDKTSAGNAPLNEEIN [C18orf25]	4.75 ± 0.29	4.97 ± 0.33	–	–
EIIPINVNNNYEHRHTSHLGHAVL [SPRY1]	2.34 ± 0.15	2.43 ± 0.3	–	–
PAVENKQQIGDAIRMIVRGTLGSC [PLK2]	3.03 ± 0.32	3.03 ± 0.19	–	–
NFFTTLRVVHHKFHSQRHGSKKD [TMEM120A]	–	–	3.32 ± 0.33	3.3 ± 0.45
SRLLGSASPSSSVRLGSFRSPRAG [PRPH]	4.08 ± 0.19	3.96 ± 0.18	–	–
SVCSCTCYRSQDYGGRSVAPQNSF [KCNK9]	2.44 ± 0.23	2.64 ± 0.43	–	–
QDCGFEHLVPVIEMWADQLTSLKD [CEP70]	2.76 ± 0.39	2.94 ± 0.53	–	–
VEPPGPGDTVVQGDLQETTVVTGL [PBXIP1]	5.31 ± 0.4	5.15 ± 0.46	–	–
LALRTLPGPSWVRGSGPSVLSRLQ [ALKBH7]	2.62 ± 0.14	2.48 ± 0.3	–	–
MGIYQMYLCFLLAVLLQLYVATEA [SLC22A15]	2.92 ± 0.38	2.84 ± 0.41	–	–
MVRKIGCYAAMKKKIYAMGGGSYG [GAN]	2.28 ± 0.17	2.45 ± 0.38	–	–
LKKSRGKFIKPWESPDEMELDELL [PTPRD]	3.52 ± 0.35	3.15 ± 0.44	–	–
RGNVVLRAQMIRNEYRKLHPVLHK [TRIM43]	2.25 ± 0.38	2.77 ± 0.56	–	–
LNLTEGFAVLHWKPPQNPVDTYDV [TNXB]	2.5 ± 0.66	2.69 ± 0.45	–	–
KDYNNLWIIKKHNTNSDPLDPSFP [POMT2]	3.15 ± 0.19	3.29 ± 0.26	–	–

Sequence	protein stability index [1]	protein stability index [2]	protein stability index (treatment: DMSO, c terminus: native)	protein stability index (treatment: MLN4924 1 uM, 8 h, c terminus: native)
GYNWCHDRNVVTIFSAPNYCYRCG [PPP2CA]	2.4 ± 0.41	2.27 ± 0.46	–	–
GLTKKRTKVQKKSLLLKKPLRVDL [NOP53]	3.25 ± 0.13	3.42 ± 0.35	–	–
VGVMLPHNTTEAPGPHSAKQDSYE [ZC2HC1C]	5.03 ± 0.27	5.215 ± 0.033	–	–
GVIVANMTEWKHQRITKQLEKWMQ [GLT8D2]	2.18 ± 0.085	2.4 ± 0.18	–	–
VCCCELGVNPDQVEKIRKLPNTLL [ANKRD40]	2.26 ± 0.36	2.82 ± 0.32	–	–
SKIFTTLDPASLAWLTEEEPEPAE [DDIT3]	5.14 ± 0.54	5.11 ± 0.27	–	–
DERIFSLTRRLAHGEELRVSARSR [HAGHL]	4.1 ± 0.33	4.12 ± 0.32	–	–
HEMREQHDAQVRLYKEELEQTYHA [LMNB1]	4.08 ± 0.38	4.27 ± 0.48	–	–
GRFEQLGKTAASWCLHVNNWLQVS [FSD1]	2.29 ± 0.37	1.96 ± 0.2	–	–
QVITLDQVLDEVIPIHGKGNFPTM [TENT5D]	2.29 ± 0.24	2.32 ± 0.25	–	–
SSSQEIPTMPQPIEKVSVSTQTKK [ZMYND11]	5.33 ± 0.42	5.37 ± 0.23	–	–
ANYVIVRAYQYTTLTSVQLLDCFG [SLC35F2]	3.21 ± 0.26	3.03 ± 0.49	–	–
RKDKDVARLQDFQELELVLMISEN [ANKRD40]	2.1 ± 0.47	2.13 ± 0.56	–	–
FWLGNEALHSLTQAGDYSMRVDLR [TNXB]	2.19 ± 0.71	2.44 ± 0.14	–	–
TLNSIWNVEDHINPKLPNISLDVL [POMT2]	2.31 ± 0.092	2.48 ± 0.17	–	–
GLSGGALSPLRAASDPLLSSVSPA [TFE3]	3.91 ± 0.32	3.91 ± 0.099	–	–
CMDQERLRRESTSQKEMDKAETKT [FCHO1]	5.15 ± 0.65	5.21 ± 0.14	–	–
HSKASLPTGEGSISHEEQKSVRLA [CHCHD6]	5.14 ± 0.2	5.15 ± 0.17	–	–
FSAEFLKVFIPSLFLSHVLALGLG [BNIP3L]	3.57 ± 0.21	2.9 ± 0.93	–	–
DRRKKIARMGFNASSMLRKSQLGF [DCAF4]	2.67 ± 0.34	2.84 ± 0.13	–	–
QGDKAIREQGPREQEPELSFLKQK [PBXIP1]	5.44 ± 0.33	5.42 ± 0.16	–	–
